Laboratory results reported in patent US20110195900A1, “PEPTIDIC PTH RECEPTOR AGONISTS” (FERRING B.V., priority 2008, published 2011).
Starred links: 1 amine or outer side, 2 acyl side, 3 side chain; linkers in the order of their positions; H or OH if unused. Non-standard residues stand in square brackets, D forms with d. No end group written: not given here. hSer(OMe) = COCC[C@H](N[*:1])C(=O)[*:2]; 1Nal = N[C@@H](Cc1cccc2ccccc12)C(=O)O; 2Nal = N[C@@H](Cc1ccc2ccccc2c1)C(=O)O; Nle = CCCC[C@H](N)C(=O)O; Aib = CC(C)(N)C(=O)O; βAla = NCCC(=O)O

Assays:
[1] = molecular target: human parathyroid hormone receptor 2 (human, UniProt P49190); experiment: cell-based or functional assay
[2] = molecular target: human parathyroid hormone receptor 1 (human, UniProt Q03431); experiment: cell-based or functional assay

Binder	hPTHR-2 EC50 (nM), luciferase reporter gene assay [1] [nM]	hPTHR-1 EC50 (nM), CRE-luciferase reporter gene assay [2] [nM]
AVSEIQL[Nle]HNLGKHLN[βAla][Nle]ERVE[1Nal]LRKLLQDVHNF-NH2 [[Ala^1, Nle^8,18, β-Ala^17, 1-Nal^23, Leu^27] hPTH (1-34)-NH2]	89	0.2
SVSEIQL[Nle]HNLGKHLN[βAla][Nle]ERVE[1Nal]LRKLLQDVHNF-NH2 [[Nle^8,18, β-Ala^17, 1-Nal^23, Leu^27] hPTH (1-34)-NH2]	47	0.12
AVSEIQL[Nle]HNLGKHLN[βAla][Nle]ERVE[2Nal]LRKKLQDVHNF-NH2 (N-terminus assumed; SMILES CCCC[C@H](NC(=O)CCNC(=O)[C@H](CC(N)=O)NC(=O)[C@H](CC(C)C)NC(=O)[C@H](Cc1c[nH]cn1)NC(=O)[C@H](CCCCN)NC(=O)CNC(=O)[C@H](CC(C)C)NC(=O)[C@H](CC(N)=O)NC(=O)[C@H](Cc1c[nH]cn1)NC(=O)[C@H](CCCC)NC(=O)[C@H](CC(C)C)NC(=O)[C@H](CCC(N)=O)NC(=O)[C@@H](NC(=O)[C@H](CCC(=O)O)NC(=O)[C@H](CO)NC(=O)[C@@H](NC(=O)[C@H](C)N)C(C)C)[C@@H](C)CC)C(=O)N[C@@H](CCC(=O)O)C(=O)N[C@@H](CCCNC(=N)N)C(=O)N[C@H](C(=O)N[C@@H](CCC(=O)O)C(=O)N[C@@H](Cc1ccc2ccccc2c1)C(=O)N[C@@H](CC(C)C)C(=O)N[C@@H](CCCNC(=N)N)C(=O)N[C@@H](CCCCN)C(=O)N[C@@H](CCCCN)C(=O)N[C@@H](CC(C)C)C(=O)N[C@@H](CCC(N)=O)C(=O)N[C@@H](CC(=O)O)C(=O)N[C@H](C(=O)N[C@@H](Cc1c[nH]cn1)C(=O)N[C@@H](CC(N)=O)C(=O)N[C@@H](Cc1ccccc1)C(N)=O)C(C)C)C(C)C) [[Ala^1, Nle^8,18, β-Ala^17, 2-Nal^23] hPTH (1-34)-NH2]	95	0.22
SVSEIQL[hSer(OMe)]HNLGKHLN[βAla][hSer(OMe)]ERVE[1Nal]LRKLLQDVHNF-NH2 [[hSer(OMe)^8,18, β-Ala^17, 1-Nal^23, Leu^27] hPTH(1-34)-NH2]	> 270	0.88
SVSEIQL[Nle]HNLGKHLN[βAla][hSer(OMe)]ERVE[1Nal]LRKLLQDVHNF-NH2 [[Nle^8, β-Ala^17, hSer(OMe)^18, 1-Nal^23, Leu^27] hPTH (1-34)-NH2]	93	0.13
[Aib]VSEIQL[Nle]HNLGKHLN[βAla][Nle]ERVE[2Nal]LRKKLQDVHNF-NH2 (N-terminus assumed; SMILES CCCC[C@H](NC(=O)CCNC(=O)[C@H](CC(N)=O)NC(=O)[C@H](CC(C)C)NC(=O)[C@H](Cc1c[nH]cn1)NC(=O)[C@H](CCCCN)NC(=O)CNC(=O)[C@H](CC(C)C)NC(=O)[C@H](CC(N)=O)NC(=O)[C@H](Cc1c[nH]cn1)NC(=O)[C@H](CCCC)NC(=O)[C@H](CC(C)C)NC(=O)[C@H](CCC(N)=O)NC(=O)[C@@H](NC(=O)[C@H](CCC(=O)O)NC(=O)[C@H](CO)NC(=O)[C@@H](NC(=O)C(C)(C)N)C(C)C)[C@@H](C)CC)C(=O)N[C@@H](CCC(=O)O)C(=O)N[C@@H](CCCNC(=N)N)C(=O)N[C@H](C(=O)N[C@@H](CCC(=O)O)C(=O)N[C@@H](Cc1ccc2ccccc2c1)C(=O)N[C@@H](CC(C)C)C(=O)N[C@@H](CCCNC(=N)N)C(=O)N[C@@H](CCCCN)C(=O)N[C@@H](CCCCN)C(=O)N[C@@H](CC(C)C)C(=O)N[C@@H](CCC(N)=O)C(=O)N[C@@H](CC(=O)O)C(=O)N[C@H](C(=O)N[C@@H](Cc1c[nH]cn1)C(=O)N[C@@H](CC(N)=O)C(=O)N[C@@H](Cc1ccccc1)C(N)=O)C(C)C)C(C)C) [[Aib^1, Nle^8,18, β-Ala^17, 2-Nal^23] hPTH (1-34)-NH2]	46	0.22
[Aib]VSEIQL[Nle]HNLGKHLN[βAla][Nle]ERVE[1Nal]LRKLLQDVHNF-NH2 [[Aib^1, Nle^8,18, β-Ala^17, 1-Nal^23, Leu^27] hPTH (1-34)-NH2]	31	0.06
